The values below come from patent US9138467.

Assay [1] deals with M. gallisepticum affinity purified antigen. Briefly: lectin affinity chromatography, protein in eluate as percent of load.
The target is the same in assay [2]. In words: lectin affinity chromatography, protein in eluate (about 1.5 mg loaded).

The substance “Concanavalin A (immobilized Con A column) (from UniProt P02866 30-281)” had a % recovery in Con A elution in assay [1] of 5.7%. The substance further displayed a Total protein (mg) eluted from Con A column in assay [2] of 0.088 mg.
